Drawing on article PMC3783180 (Nucleic Acids Research, 2013), this text covers binding result and Kd for seven molecules.

In experiment [1] the target is T1, S. cerevisiae Dhh1 residues 30-425 (DEAD-box core, RecA1 and RecA2) (S. cerevisiae, UniProt P39517 30-425).
T1 sequence: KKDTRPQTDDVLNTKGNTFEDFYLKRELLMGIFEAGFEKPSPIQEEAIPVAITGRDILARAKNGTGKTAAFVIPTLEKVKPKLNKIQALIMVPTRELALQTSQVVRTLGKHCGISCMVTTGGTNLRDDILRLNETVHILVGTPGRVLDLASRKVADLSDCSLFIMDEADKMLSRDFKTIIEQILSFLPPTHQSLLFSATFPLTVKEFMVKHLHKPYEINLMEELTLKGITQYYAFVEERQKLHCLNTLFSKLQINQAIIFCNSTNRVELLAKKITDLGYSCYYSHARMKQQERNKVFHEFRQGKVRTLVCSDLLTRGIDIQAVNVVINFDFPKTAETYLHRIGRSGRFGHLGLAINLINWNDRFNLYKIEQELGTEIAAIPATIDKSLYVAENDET
Description: pull-down.

In experiment [2] the target is T1, S. cerevisiae Dhh1 residues 30-425 …. Description: SEC. Background: In gel filtration, larger molecules generally elute earlier.
Experiment [3] has the same target. Description: ITC. (In general: In ITC the heat of successive injections is recorded.)
Experiment [4] concerns the target T2, S. cerevisiae Dhh1 residues 46-422 K234D, V238D (S. cerevisiae, UniProt P39517 46-422, K234D | V238D).
T2 sequence: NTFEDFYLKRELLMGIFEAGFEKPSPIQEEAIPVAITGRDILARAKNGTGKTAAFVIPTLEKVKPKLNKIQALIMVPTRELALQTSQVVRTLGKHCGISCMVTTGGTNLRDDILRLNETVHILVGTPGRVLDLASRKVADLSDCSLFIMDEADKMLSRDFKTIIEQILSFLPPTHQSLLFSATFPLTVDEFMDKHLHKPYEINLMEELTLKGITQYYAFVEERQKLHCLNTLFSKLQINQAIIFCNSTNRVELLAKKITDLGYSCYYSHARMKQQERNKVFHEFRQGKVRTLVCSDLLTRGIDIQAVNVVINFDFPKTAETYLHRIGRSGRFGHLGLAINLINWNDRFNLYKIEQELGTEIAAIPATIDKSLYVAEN
Put plainly: crystal structure.

Experiment [5] has as its target T3, S. cerevisiae Dhh1 residues 251-425 (RecA2 domain) (S. cerevisiae, UniProt P39517 251-425).
T3 sequence: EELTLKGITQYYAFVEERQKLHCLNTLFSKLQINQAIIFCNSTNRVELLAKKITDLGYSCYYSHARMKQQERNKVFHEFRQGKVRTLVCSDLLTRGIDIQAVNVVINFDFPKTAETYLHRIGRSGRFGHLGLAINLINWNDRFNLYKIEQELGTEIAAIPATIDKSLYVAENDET
Put plainly: ITC.

B1: GST-tagged S. cerevisiae Pat1 residues 1-114 (N-terminal domain) (domain or fragment)
chain: MSFFGLENSGNARDGPLDFEESYKGYGEHELEENDYLNDETFGDNVQVGTDFDFGNPHSSGSSGNAIGGNGVGATARSYVAATAEGISGPRTDGTAAAGPLDLKPMESLWSTAP
Turning to B1, in experiment [1], the binding result was “binds”.

B2: S. cerevisiae Pat1 residues 1-114, as in the purified complex with Dhh1 30-425 used for limited proteolysis (domain or fragment)
chain: MSFFGLENSGNARDGPLDFEESYKGYGEHELEENDYLNDETFGDNVQVGTDFDFGNPHSSGSSGNAIGGNGVGATARSYVAATAEGISGPRTDGTAAAGPLDLKPMESLWSTAP
Consider B2, for which the binding result in experiment [2] is “binds”.

B3: S. cerevisiae Edc3 residues 77-158, as used for ITC (domain or fragment)
chain: QQNDYNQNRGEHIDWQDDDVSKIKQQEDFDFQRNLGMFNKKDVFAQLKQNDDILPENRLQGHNRKQTQLQQNNYQNDELVIP
The term Kd denotes the free concentration of one partner at which half of the binding sites on the other are occupied at equilibrium, for simple one-to-one binding. In turn, B3 showed a Kd in experiment [3] of 200 nM.

B4: S. cerevisiae Pat1 residues 5-79, as crystallized (domain or fragment)
chain: GLENSGNARDGPLDFEESYKGYGEHELEENDYLNDETFGDNVQVGTDFDFGNPHSSGSSGNAIGGNGVGATARSY
Consider B4, for which the binding result in experiment [4] is given as “binds”.

B5: His6-SUMO-tagged S. cerevisiae Pat1 residues 5-79 (domain or fragment)
chain: GLENSGNARDGPLDFEESYKGYGEHELEENDYLNDETFGDNVQVGTDFDFGNPHSSGSSGNAIGGNGVGATARSY
In turn, B5 showed a Kd in experiment [5] of 32 nM.

B6: GST-tagged S. cerevisiae Pat1 residues 1-56 (domain or fragment)
chain: MSFFGLENSGNARDGPLDFEESYKGYGEHELEENDYLNDETFGDNVQVGTDFDFGN
Turning to B6, the binding result in experiment [1] is listed as “binds”.
In the case of QQNDYNQNRGEHIDWQDDDVSKIKQQEDFDFQRNLGMFNK (domain or fragment) [S. cerevisiae Edc3 residues 77-116, as crystallized], the binding result in experiment [4] was “binds”.
